{"source": "patent JP2004500847A", "about": "(dated 2004)", "key": {"[1]": {"biological_target": "HLA-DR on HLA-DR-positive cell lines (GRANTA-519, MHH-CALL4, Priess or LG2; allotype not stated) (human)", "assay": "cell-based or functional assay"}, "[2]": {"biological_target": "T1, human MHC class II DR protein (DRA*0101/DRB1*0401) purified from Priess cells (human, UniProt P01903 26-254; P01911 30-266, limits assumed)", "T1 construct": "mature; Native heterodimer isolated from cell lysate; Coated on ELISA plates or coupled to a BIAcore CM5 chip; also called HLA-DR protein; MHC-class II DRA*0101/DRB1*0401", "T1 MHC II alpha": "not shown", "T1 MHC II beta": "not shown", "assay": "SPR (Biacore), DR protein on the chip"}, "[3]": {"biological_target": "HLA-DR on the human B lymphoblastoid cell line LG-2 (human)", "assay": "flow cytometry on LG-2 cells, 35 ug Fab first; competitor 1-1C4 (2 ug)"}}, "note": "Where “and” joins values, the source holds several entries; their conditions need not be identical. Equal entries are not always repeated."}
{"binder": "MS-GPC-8-Fab (Fab, V domains shown) VH: QVQLKESGPALVKPTQTLTLTCTFSGFSLSTSGVGVGWIRQPPGKALEWLALIDWDDDKYYSTSLKTRLTISKDTSKNQVVLTMTNMDPVDTATYYCARSPRYRGAFDYWGQGTLVTVSS VL: DIVLTQPPSVSGAPGQRVTISCSGSSSNIGSNYVSWYQQLPGTAPKLLIYDNNQRPSGVPDRFSGSKSGTSASLAITGLQSEDEADYYCQSYDMPQAVFGGGTKLTVLG", "values": [{"measurement": "EC50 of cell killing (Priess or LG2 cells), as concentration of the bivalent cross-linked (Fab) dimer", "setting": "[1]", "result": "< 60", "unit": "nM"}, {"measurement": "EC50 of cell killing (Priess or LG2 cells), as concentration of the monovalent fragment, cross-linked with anti-FLAG M2", "setting": "[1]", "result": "< 120", "unit": "nM"}, {"measurement": "EC50 of cell killing (concentration of the bivalent cross-linked Fab dimer; cell line not named here)", "setting": "[1]", "result": "20 nM and 40 nM"}, {"measurement": "maximal killing of MHH-CALL 4 cells", "setting": "[1]", "result": 65, "unit": "%"}, {"measurement": "Kd", "setting": "[2]", "result": 346, "unit": "nM"}, {"measurement": "decrease of binding of the mouse antibody", "setting": "[3]", "result": 50, "unit": "%"}]}
